Reference: the RNAGym collection of RNA variant scans (doi:10.1021/acssynbio.7b00057)

B1: Pistol ribozyme (parent)
chain: GGGUCGUUGUUCCAUAAUCGCGUGGAUAUGGCACGCAAGUUUCUACCGGGCACCGUAAAUGUCCGACUGGAGCCGUUCGGGCGGCUAUAAACAGACCUCAGGCCCGAAGCGUGGCGGCACCUGCCGCCGGUGGUAAAAAAGAUCGGAAGAGCACACGUCU

Variants of: B1
Assay: aptazyme ON/OFF ratio, guanine; higher = stronger switching; co-transcriptional cleavage with and without guanine

Variant	aptazyme ON/OFF ratio
U7C U8C G9A U10C U11C C13U	1.19
U7C U8C G9A U10C U11C C13A	1.08
U7C U8C G9A U10C U11C C13G	1.21
U7C U8C G9C U10C C12U	1.94
U7C U8C G9C U10C C12G	1.14
U7C U8C G9C U10C C12A	1.08
U7C U8C G9A U10G U11C C12A C13G	1.07
U7C U8C G9A U10G U11C C12A C13A	1.2
U7C U8C G9A U10G U11C C12A C13U	1.17
U7C U8C G9C U10A U11C C12G	1.21
U7C U8C G9C U10A U11C C12A	1.21
U7C U8C G9C U10A U11C C12U	1.17
U7C U8C G9A U10A U11C C12A C13A	1.17
U7C U8C G9A U10A U11C C12A C13G	1.18
U7C U8C G9A U10A U11C C12A C13U	1.31
U7C U8C G9A U10C C13U	1.52
U7C U8C G9A U10C C13G	1.35
U7C U8C G9A U10C C13A	1.47
U7C U8C G9A U10C C12U C13G	1.26
U7C U8C G9A U10C C12U C13A	1.22
U7C U8C G9A U10C C12U C13U	1.32
U7C U8C G9A U11C C12U C13U	1.18
U7C U8C G9A U11C C12U C13G	1.08
U7C U8C G9A U11C C12U C13A	1.19

Variant	aptazyme ON/OFF ratio
U7C U8C G9C U10A C13G	1.15
U7C U8C G9C U10A C13A	1.16
U7C U8C G9C U10A C13U	1.35
U7C U8C G9C U10A C12U	1.26
U7C U8C G9C U10A C12G	1.16
U7C U8C G9C U10A C12A	1.11
U7C U8C G9A U11A C12G C13U	1.23
U7C U8C G9A U11A C12G C13G	1.17
U7C U8C G9A U11A C12G C13A	1.1
U7C U8C G9A U10G U11C C13A	1.24
U7C U8C G9A U10G U11C C13U	1.17
U7C U8C G9A U10G U11C C13G	1.01
U7C U8C G9A U10C U11G C12U C13G	1.33
U7C U8C G9A U10C U11G C12U C13U	1.23
U7C U8C G9A U10C U11G C12U C13A	1.45
U7C U8C G9A U11G C12A C13A	1.3
U7C U8C G9A U11G C12A C13G	1.25
U7C U8C G9A U11G C12A C13U	1.59
U7C U8C G9A U10G U11G C12G	1.16
U7C U8C G9A U10G U11G C12U	1.25
U7C U8C G9A U10G U11G C12A	1.23
U7C U8C G9A U10C C12A C13U	1.21
U7C U8C G9A U10C C12A C13G	1.2
U7C U8C G9A U10C C12A C13A	1.52

Variant	aptazyme ON/OFF ratio
U7C U8C G9C	1.13
U7C U8C G9C U10A U11C	1.39
U7C U8C G9C U10A U11G	1.32
U7C U8C G9C U10A U11A	1.44
U7C U8C G9C U10A C12U C13U	1.11
U7C U8C G9C U10A C12U C13A	1.11
U7C U8C G9C U10A C12U C13G	1.13
U7C U8C G9A U10C C12G C13G	1.21
U7C U8C G9A U10C C12G C13U	1.11
U7C U8C G9A U10C C12G C13A	1.28
U7C U8C G9A U10A U11G C12G C13G	1.15
U7C U8C G9A U10A U11G C12G C13U	1.14
U7C U8C G9A U10A U11G C12G C13A	1.13
U7C U8C G9A U10C U11G C13U	1.32
U7C U8C G9A U10C U11G C13G	1.15
U7C U8C G9A U10C U11G C13A	1.11
U7C U8C G9A U11A C12A C13U	1.38
U7C U8C G9A U11A C12A C13G	1.18
U7C U8C G9A U11A C12A C13A	1.43
U7C U8C G9C U10C U11A C12A C13U	1.1
U7C U8C G9C U10C U11A C12A C13G	1.06
U7C U8C G9C U10C U11A C12A C13A	1.07
U7C U8C G9A U10A U11G C13G	1.19
U7C U8C G9A U10A U11G C13U	1.21

Variant	aptazyme ON/OFF ratio
U7C U8C G9A U10A U11G C13A	1.21
U7C U8C G9C U10A	2.7
U7C U8C G9C U10C	3.53
U7C U8C G9C C12G C13A	1.08
U7C U8C G9C C12G C13G	1.07
U7C U8C G9C C12G C13U	1.07
U7C U8C G9A U10A U11C C12U C13U	1.13
U7C U8C G9A U10A U11C C12U C13A	1.15
U7C U8C G9A U10A U11C C12U C13G	1.2
U7C U8C G9C U10A C12A C13A	1.09
U7C U8C G9C U10A C12A C13U	1.21
U7C U8C G9C U10A C12A C13G	1.14
U7C U8C G9A U10C U11C C12U	1.41
U7C U8C G9A U10C U11C C12A	1.25
U7C U8C G9A U10C U11C C12G	1.19
U7C U8C G9C C13G	1.09
U7C U8C G9C C13U	1.05
U7C U8C G9C C13A	1.09
U7C U8C G9A U10C U11A C12U C13U	1.3
U7C U8C G9A U10C U11A C12U C13G	1.27
U7C U8C G9A U10C U11A C12U C13A	1.21
U7C U8C G9A U10C U11A C12A C13A	1.18
U7C U8C G9A U10C U11A C12A C13G	1.4
U7C U8C G9A U10C U11A C12A C13U	1.18

Variant	aptazyme ON/OFF ratio
U7C U8C G9A U10G U11G C12G C13A	1.15
U7C U8C G9A U10G U11G C12G C13U	1.11
U7C U8C G9A U10G U11G C12G C13G	1.14
U7C U8C G9A U10C U11G	1.24
U7C U8C G9A U10C U11C	3.61
U7C U8C G9A U10C U11A	1.8
U7C U8C G9A U10A U11G C12G	1.25
U7C U8C G9A U10A U11G C12A	1.08
U7C U8C G9A U10A U11G C12U	1.35
U7C U8C G9A U10C	1.45
U7C U8C G9A U10G	1.56
U7C U8C G9C U10C U11A C12U C13A	1.08
U7C U8C G9C U10C U11A C12U C13U	1.1
U7C U8C G9C U10C U11A C12U C13G	1.11
U7C U8C G9C U10C U11C C12A C13U	1.02
U7C U8C G9C U10C U11C C12A C13G	1.09
U7C U8C G9C U10C U11C C12A C13A	0.986
U7C U8C G9A U11G C12G C13G	1.11
U7C U8C G9A U11G C12G C13U	1.11
U7C U8C G9A U11G C12G C13A	1.23
U7C U8C G9C U10A U11C C13A	1.08
U7C U8C G9C U10A U11C C13U	1.1
U7C U8C G9C U10A U11C C13G	1.1
U7C U8C G9A U11A C13U	1.32

Variant	aptazyme ON/OFF ratio
U7C U8C G9A U11A C13A	1.26
U7C U8C G9A U11A C13G	1.13
U7C U8C G9A U11G C12A	1.37
U7C U8C G9A U11G C12U	1.34
U7C U8C G9A U11G C12G	1.35
U7C U8C G9A U10G U11G C12A C13U	1.15
U7C U8C G9A U10G U11G C12A C13A	1.2
U7C U8C G9A U10G U11G C12A C13G	1.1
U7C U8C G9C U10C C13A	1.04
U7C U8C G9C U10C C13G	1.12
U7C U8C G9C U10C C13U	2.85
U7C U8C G9A U11A C12U C13G	1.25
U7C U8C G9A U11A C12U C13A	1.26
U7C U8C G9A U11A C12U C13U	1.21
U7C U8C G9A U11A	1.16
U7C U8C G9A U11G	1.62
U7C U8C G9A U11C	1.82
U7C U8C G9C U10C U11A C12G C13U	1.05
U7C U8C G9C U10C U11A C12G C13G	1.13
U7C U8C G9C U10C U11A C12G C13A	1.11
U7C U8C G9A U10G C13A	1.27
U7C U8C G9A U10G C13G	1.12
U7C U8C G9A U10G C13U	1.37
U7C U8C G9A U11G C13G	1.28

Variant	aptazyme ON/OFF ratio
U7C U8C G9A U11G C13A	1.3
U7C U8C G9A U11G C13U	1.27
U7C U8C G9A U10C U11C C12U C13G	1.24
U7C U8C G9A U10C U11C C12U C13A	1.2
U7C U8C G9A U10C U11C C12U C13U	1.32
U7C U8C G9A U10C C12U	2.28
U7C U8C G9A U10C C12A	1.12
U7C U8C G9A U10C C12G	1.33
U7C U8C G9C U10A U11A C12G	1.08
U7C U8C G9C U10A U11A C12U	1.09
U7C U8C G9C U10A U11A C12A	1.21
U7C U8C G9C U10C U11C C12G C13A	1.28
U7C U8C G9C U10C U11C C12G C13G	1.19
U7C U8C G9C U10C U11C C12G C13U	1.1
U7C U8C G9C U10A C12G C13U	1.1
U7C U8C G9C U10A C12G C13G	1.17
U7C U8C G9C U10A C12G C13A	1.11
U7C U8C G9A U10A U11C C12G C13U	1.31
U7C U8C G9A U10A U11C C12G C13G	1.4
U7C U8C G9A U10A U11C C12G C13A	1.4
U7C U8C G9A U10A U11C C13A	1.16
U7C U8C G9A U10A U11C C13U	1.11
U7C U8C G9A U10A U11C C13G	1.04
